Literature values, collected in US20250205311A1, “PHARMACEUTICAL COMPOSITIONS OF SEMAGLUTIDE AND THE METHODS OF USE THEREOF” (PENTIDE THERAPEUTICS LIMITED, priority 2022, published 2025).

Details: oral tablet

Question: For “N6,26-{18-[N-(17-carboxyheptadecanoyl)-L-glutamyl]-1 0-oxo-3,6, 12, 15-tetraoxa-9, 18-diazaoctadecanoyl}-[8-(2-amino-2-propanoic acid), 34-L-arginine] human glucagon-like peptide 1 (7-37) [semaglutide]”, which oral bioavailability is on record?
Answer: The oral bioavailability was 0.4-1%.
